# Assay results from patent EP4361176A1 (CHUGAI SEIYAKU KABUSHIKI KAISHA, dated 2024).
# Key:
# [1] = molecular target: T1, hFcyRIIaH on hFcyRIIaH-expressing Jurkat cells (human, UniProt P12318 34-317); assay: cell-based or functional assay
# T1 sequence (looked up): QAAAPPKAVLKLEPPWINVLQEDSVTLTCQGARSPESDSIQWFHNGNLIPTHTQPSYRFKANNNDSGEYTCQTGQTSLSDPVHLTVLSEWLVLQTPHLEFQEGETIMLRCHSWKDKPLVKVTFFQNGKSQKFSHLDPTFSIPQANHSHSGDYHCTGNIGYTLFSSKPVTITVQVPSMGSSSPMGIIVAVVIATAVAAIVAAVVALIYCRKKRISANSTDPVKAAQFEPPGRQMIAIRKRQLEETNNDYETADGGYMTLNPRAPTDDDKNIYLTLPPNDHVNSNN
# [2] = molecular target: hFcyRIIIaV on hFcyRIIIaV-expressing Jurkat cells (human, UniProt P08637 17-254); assay: cell-based or functional assay
# hFcyRIIIaV on hFcyRIIIaV-expressing Jurkat cells, sequence (P08637 17-254): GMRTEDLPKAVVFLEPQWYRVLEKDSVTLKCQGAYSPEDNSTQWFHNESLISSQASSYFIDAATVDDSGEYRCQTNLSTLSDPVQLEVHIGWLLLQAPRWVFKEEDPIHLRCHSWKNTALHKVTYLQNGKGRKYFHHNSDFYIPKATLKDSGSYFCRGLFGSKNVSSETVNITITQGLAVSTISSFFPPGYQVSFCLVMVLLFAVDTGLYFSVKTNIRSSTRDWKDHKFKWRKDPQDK
# [3] = molecular target: T2, human FcγRIIa H extracellular domain (human, UniProt P12318 34-217); assay: SPR; KD for FcγRIIb divided by KD for this FcγR
# T2 construct: extracellular domain; Made by the method of WO2014104165; also called hFcγR IIa H; FcyRIIaH
# T2 sequence (looked up): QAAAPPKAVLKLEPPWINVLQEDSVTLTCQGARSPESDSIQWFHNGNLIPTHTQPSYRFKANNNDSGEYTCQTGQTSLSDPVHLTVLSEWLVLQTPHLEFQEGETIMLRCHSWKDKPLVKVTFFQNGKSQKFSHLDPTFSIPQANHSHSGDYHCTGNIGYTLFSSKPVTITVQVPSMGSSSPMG
# [4] = molecular target: T3, human FcγRIIIa F extracellular domain (human, UniProt P08637 17-208); assay: SPR; KD for FcγRIIb divided by KD for this FcγR
# T3 construct: extracellular domain; Made by the method of WO2014104165; also called hFcγR IIIa F; FcyRIIIaF
# T3 sequence (P08637 17-208): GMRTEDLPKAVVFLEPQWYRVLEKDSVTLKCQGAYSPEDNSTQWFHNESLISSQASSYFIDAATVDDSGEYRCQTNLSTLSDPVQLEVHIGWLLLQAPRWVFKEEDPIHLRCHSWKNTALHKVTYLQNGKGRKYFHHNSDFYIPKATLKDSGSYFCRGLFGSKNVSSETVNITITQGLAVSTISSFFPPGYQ
# [5] = molecular target: T4, human CTLA4 (soluble analyte of the Biacore assays of Reference Example 3-3) (human, UniProt P16410 36-161); assay: SPR, 1000 nM CTLA4, per unit antibody, no ATP
# T4 construct: also called hCTLA4
# T4 sequence: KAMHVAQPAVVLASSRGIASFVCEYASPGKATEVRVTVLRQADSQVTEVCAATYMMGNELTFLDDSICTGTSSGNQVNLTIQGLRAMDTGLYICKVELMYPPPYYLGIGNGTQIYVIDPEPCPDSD
# [6] = molecular target: T4, human CTLA4 (soluble analyte of the …); assay: SPR, 1000 nM CTLA4, per unit antibody, ATP 1 uM
# [7] = molecular target: T4, human CTLA4 (soluble analyte of the …); assay: SPR, 1000 nM CTLA4, per unit antibody, ATP 10 uM
# [8] = molecular target: T4, human CTLA4 (soluble analyte of the …); assay: SPR, 1000 nM CTLA4, per unit antibody, ATP 100 uM
# [9] = molecular target: T4, human CTLA4 (soluble analyte of the …); assay: SPR Biacore T200
Binder,"EC50 value (µg/mL), ADCP reporter bioassay (fold induction of luminescence), Hepa1-6/hEREG target cells [1] [µg/mL]","EC50 value (µg/mL), ADCC reporter bioassay (fold induction of luminescence), Hepa1-6/hEREG target cells [2] [µg/mL]",A/I ratio (KD for FcγRIIb divided by KD for each FcyR) [3],A/I ratio (KD for FcγRIIb divided by KD for each FcyR) [4],Binding to Human CTLA4 [5],Binding to Human CTLA4 [6],Binding to Human CTLA4 [7],Binding to Human CTLA4 [8],binding result [9]
"H240-Kn037/L73-k0//H240-Hl036/L73-k0 (antibody, human IgG1, kappa, also called EGL-GASDIE; GASDIE) heavy 1: QDQLVQSGAEVKKPGASVKVSCKASGFNIKDTYIQWVRQAPGQGLEWMGRIDPLRKQTKYREKFEGRVTITADTSTNTAYMELSSLRSEDTAVYYCVRSGREFDYWGQGTLVTVSSASTKGPSVFPLAPSSKSTSGGTAALGCLVKDYFPEPVTVSWNSGALTSGVHTFPAVLQSSGLYSLSSVVTVPSSSLGTQTYICNVNHKPSNTKVDKKVEPKSCDKTHTCPPCPAPELLAGPDVFLFPPKPKDTLMISRTPEVTCVVVDVSHEDPEVKFNWYVDGVEVHNAKTKPREEQYNSTYRVVSVLTVLHQDWLNGKEYKCKVSNKALPAPEEKTISKAKGQPREPQVCTLPPSRDELTKNQVSLWCLVKGFYPSDIAVEWESNGQPENNYKTTPPVLDSDGSFFLYSKLTVDKSRWQQGNVFSCSVMHEALHNHYTQKSLSLSP heavy 2: QDQLVQSGAEVKKPGASVKVSCKASGFNIKDTYIQWVRQAPGQGLEWMGRIDPLRKQTKYREKFEGRVTITADTSTNTAYMELSSLRSEDTAVYYCVRSGREFDYWGQGTLVTVSSASTKGPSVFPLAPSSKSTSGGTAALGCLVKDYFPEPVTVSWNSGALTSGVHTFPAVLQSSGLYSLSSVVTVPSSSLGTQTYICNVNHKPSNTKVDKKVEPKSCDKTHTCPPCPAPELLAGPDVFLFPPKPKDTLMISRTPEVTCVVVDVSHEDPEVKFNWYVDGVEVHNAKTKPREEQYNSTYRVVSVLTVLHQDWLNGKEYKCKVSNKALPAPEEKTISKAKGQPREPQVYTLPPSRCELTKNQVSLSCAVKGFYPSDIAVEWESNGQPENNYKTTPPVLDSDGSFFLVSKLTVDKSRWQQGNVFSCSVMHEALHNHYTQKSLSLSP light: DIQMTQSPSSLSASVGDRVTITCRASQDIHKYIAWYQQKPGQAPRLLIQYTSTLQPGVPSRFSGSGSGTDYTFTISSLQPEDIATYYCLQYEQLRTFGGGTKVEIKRTVAAPSVFIFPPSDEQLKSGTASVVCLLNNFYPREAKVQWKVDNALQSGNSQESVTEQDSKDSTYSLSSTLTLSKADYEKHKVYACEVTHQGLSSPVTKSFNRGEC",0.0149,0.0037,18.2,18.9,–,–,–,–,–
"04H1207-G1m/04L1086-lam1 (antibody, human IgG1, lambda, V domains shown) VH: EVQLVESGGGLVKPGGSLRLSCAASGFTFSSKTMNWVRQAPGKGLEWVSSISTRSGYIYYAESVKGRFTISRDNAKNSLYLQMNSLRAEDTAVYYCARYGKREDMLWVFDYWGQGTLVTVSS VL: QSALTQPPSASGSPGQTVTISCDGPSTGVGDYNYVHWYQQHPGKAPKLMIYFTSKKPSGVPDRFSGSKSGNTASLTVSGLQAEDEADYFCQTYAAPLGPMFGGGTKLTVLG",–,–,–,–,0.013,0.047,0.137,0.196,–
"04H1077-G1m/04L1041-lam1 (antibody, human IgG1, lambda, V domains shown) VH: EVQLVESGGDLVKPGGGLRLSCAASGFTFSSRTMNWVRQAPGKGLEWVSSISTRSGYIYYAESVKGRFTISRDNAKNSLYLQMNSLRAEDTAVYYCARYGKREDMLWVFDYWGQGTLVTVSS VL: QSALTQPPSASGSPGQTVTISCDGPSTDVGDYNYVHWYQQHPGKAPKLMIYFTSKKPSGVPDRFSGSKSGNTASLTVSGLQAEDEADYFCSTYAAPLGPMFGGGTKLTVLG",–,–,–,–,0.006,0.023,0.094,0.172,–
"04H1077-G1m/04L1067-lam1 (antibody, human IgG1, lambda, V domains shown) VH: EVQLVESGGDLVKPGGGLRLSCAASGFTFSSRTMNWVRQAPGKGLEWVSSISTRSGYIYYAESVKGRFTISRDNAKNSLYLQMNSLRAEDTAVYYCARYGKREDMLWVFDYWGQGTLVTVSS VL: QSALTQPPSASGSPGQTVTISCDGPSTGVGDYNYVHWYQQHPGKAPKLMIYFTSKKPSGVPDRFSGSKSGNTASLTVSGLQAEDEADYFCSTYAAPLGPMFGGGTKLTVLG",–,–,–,–,0.012,0.041,0.131,0.192,–
"04H1077-G1m/04L1086-lam1 (antibody, human IgG1, lambda, V domains shown) VH: EVQLVESGGDLVKPGGGLRLSCAASGFTFSSRTMNWVRQAPGKGLEWVSSISTRSGYIYYAESVKGRFTISRDNAKNSLYLQMNSLRAEDTAVYYCARYGKREDMLWVFDYWGQGTLVTVSS VL: QSALTQPPSASGSPGQTVTISCDGPSTGVGDYNYVHWYQQHPGKAPKLMIYFTSKKPSGVPDRFSGSKSGNTASLTVSGLQAEDEADYFCQTYAAPLGPMFGGGTKLTVLG",–,–,–,–,0.01,0.031,0.106,0.181,–
"04H1077-G1m/04L1066-lam1 (antibody, human IgG1, lambda, V domains shown) VH: EVQLVESGGDLVKPGGGLRLSCAASGFTFSSRTMNWVRQAPGKGLEWVSSISTRSGYIYYAESVKGRFTISRDNAKNSLYLQMNSLRAEDTAVYYCARYGKREDMLWVFDYWGQGTLVTVSS VL: QSALTQPPSASGSPGQTVTISCDGPSTDVGDYNWVHWYQQHPGKAPKLMIYFTSKKPSGVPDRFSGSKSGNTASLTVSGLQAEDEADYFCSTYAAPLGPMFGGGTKLTVLG",–,–,–,–,0.02,0.057,0.142,0.185,–
"04H1208-G1m/04L1086-lam1 (antibody, human IgG1, lambda, V domains shown) VH: EVQLVESGGGLVKPGGSLRLSCAASGFTFSSKTMNWVRQAPGKGLEWVSSISTRSGYIYYARSVKGRFTISRDNAKNSLYLQMNSLRAEDTAVYYCARYGKREDMLWVFDYWGQGTLVTVSS VL: QSALTQPPSASGSPGQTVTISCDGPSTGVGDYNYVHWYQQHPGKAPKLMIYFTSKKPSGVPDRFSGSKSGNTASLTVSGLQAEDEADYFCQTYAAPLGPMFGGGTKLTVLG",–,–,–,–,0.005,0.03,0.108,0.17,–
"04H1077-G1m/04L1034-lam1 (antibody, human IgG1, lambda, V domains shown) VH: EVQLVESGGDLVKPGGGLRLSCAASGFTFSSRTMNWVRQAPGKGLEWVSSISTRSGYIYYAESVKGRFTISRDNAKNSLYLQMNSLRAEDTAVYYCARYGKREDMLWVFDYWGQGTLVTVSS VL: QSALTQPPSASGSPGQTVTISCDGPSTDVGDYNWVSWYQQHPGKAPKLMIYFTSKKPSGVPDRFSGSKSGNTASLTVSGLQAEDEADYFCSTYAAPLGPMFGGGTKLTVLG",–,–,–,–,0.004,0.007,0.041,0.114,–
"04H1077-G1m/04L1305-k0MT (antibody, human IgG1, kappa, V domains shown) VH: EVQLVESGGDLVKPGGGLRLSCAASGFTFSSRTMNWVRQAPGKGLEWVSSISTRSGYIYYAESVKGRFTISRDNAKNSLYLQMNSLRAEDTAVYYCARYGKREDMLWVFDYWGQGTLVTVSS VL: DIVMTQSPLSLPVTPGEPASISCDGPSTGVGDYNYVHWYQQKPGQAPRLLIYFTSKKPSGVPDRFSGSGSGTDFTLKISRVEAEDVGVYYCQTYAAPLGPMFGQGTKLEIKR",–,–,–,–,0.018,0.046,0.128,0.185,–
"04H1389v373-G1m/04L1086-lam1 (antibody, human IgG1, lambda) heavy: not shown light: QSALTQPPSASGSPGQTVTISCDGPSTGVGDYNYVHWYQQHPGKAPKLMIYFTSKKPSGVPDRFSGSKSGNTASLTVSGLQAEDEADYFCQTYAAPLGPMFGGGTKLTVLGQPKAAPSVTLFPPSSEELQANKATLVCLISDFYPGAVTVAWKADSSPVKAGVETTTPSKQSNNKYAASSYLSLTPEQWKSHRSYSCQVTHEGSTVEKTVAPTECS",–,–,–,–,–,–,–,–,binds
"04H1637-G1m/04L1086-lam1 (antibody, human IgG1, lambda) heavy: not shown light: QSALTQPPSASGSPGQTVTISCDGPSTGVGDYNYVHWYQQHPGKAPKLMIYFTSKKPSGVPDRFSGSKSGNTASLTVSGLQAEDEADYFCQTYAAPLGPMFGGGTKLTVLGQPKAAPSVTLFPPSSEELQANKATLVCLISDFYPGAVTVAWKADSSPVKAGVETTTPSKQSNNKYAASSYLSLTPEQWKSHRSYSCQVTHEGSTVEKTVAPTECS",–,–,–,–,–,–,–,–,binds
